In patent US10428140B2, “Anti-EphA4 antibody” (EISAI R&D MANAGEMENT CO., LTD., priority 2015, dated 2019):

T1: human EphA7 (Homo sapiens, UniProt Q15375)
T1 construct: a protein of the extracellular region of each human Eph receptor fused with the SEAP protein and the His tag; made in house; host or cells: Expi293F cells (culture supernatant)
T1 sequence (Q15375 28-555 limits assumed): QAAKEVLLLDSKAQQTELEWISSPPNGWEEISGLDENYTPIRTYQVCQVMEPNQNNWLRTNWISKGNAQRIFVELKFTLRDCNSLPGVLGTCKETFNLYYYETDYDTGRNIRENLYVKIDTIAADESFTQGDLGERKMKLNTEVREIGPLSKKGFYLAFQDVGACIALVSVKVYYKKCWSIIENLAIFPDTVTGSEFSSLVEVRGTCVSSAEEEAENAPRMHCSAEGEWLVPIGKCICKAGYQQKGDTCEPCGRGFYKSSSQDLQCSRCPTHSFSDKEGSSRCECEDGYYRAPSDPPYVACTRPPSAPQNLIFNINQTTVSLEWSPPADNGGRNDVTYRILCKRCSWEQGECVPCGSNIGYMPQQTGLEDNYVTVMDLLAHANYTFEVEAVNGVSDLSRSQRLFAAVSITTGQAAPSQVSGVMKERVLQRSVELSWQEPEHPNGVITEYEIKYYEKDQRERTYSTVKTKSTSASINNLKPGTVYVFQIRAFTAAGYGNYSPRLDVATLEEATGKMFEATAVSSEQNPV

T2: human EphB4 (Homo sapiens, UniProt P54760)
T2 construct: a protein of the extracellular region of each human Eph receptor fused with the SEAP protein and the His tag; made in house; host or cells: Expi293F cells
T2 sequence (P54760 16-539 limits assumed): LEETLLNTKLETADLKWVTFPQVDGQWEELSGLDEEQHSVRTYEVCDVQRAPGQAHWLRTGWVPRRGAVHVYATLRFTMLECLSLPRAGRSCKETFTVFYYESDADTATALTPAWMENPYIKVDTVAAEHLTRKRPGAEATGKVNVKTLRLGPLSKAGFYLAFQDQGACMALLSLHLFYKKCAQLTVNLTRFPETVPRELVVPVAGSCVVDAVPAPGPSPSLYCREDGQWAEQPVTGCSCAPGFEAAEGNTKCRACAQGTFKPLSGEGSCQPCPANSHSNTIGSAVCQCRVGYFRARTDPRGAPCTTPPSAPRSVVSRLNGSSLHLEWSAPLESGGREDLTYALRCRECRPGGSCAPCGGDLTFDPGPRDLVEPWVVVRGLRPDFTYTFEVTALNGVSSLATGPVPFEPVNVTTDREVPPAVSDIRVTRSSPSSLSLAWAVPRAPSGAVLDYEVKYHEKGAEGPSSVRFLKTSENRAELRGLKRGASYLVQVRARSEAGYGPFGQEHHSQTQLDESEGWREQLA

T3: human EphA8 (Homo sapiens, UniProt P29322)
T3 construct: a protein of the extracellular region of each human Eph receptor fused with the SEAP protein and the His tag; made in house; host or cells: Expi293F cells (culture supernatant)
T3 sequence (P29322 28-542 limits assumed): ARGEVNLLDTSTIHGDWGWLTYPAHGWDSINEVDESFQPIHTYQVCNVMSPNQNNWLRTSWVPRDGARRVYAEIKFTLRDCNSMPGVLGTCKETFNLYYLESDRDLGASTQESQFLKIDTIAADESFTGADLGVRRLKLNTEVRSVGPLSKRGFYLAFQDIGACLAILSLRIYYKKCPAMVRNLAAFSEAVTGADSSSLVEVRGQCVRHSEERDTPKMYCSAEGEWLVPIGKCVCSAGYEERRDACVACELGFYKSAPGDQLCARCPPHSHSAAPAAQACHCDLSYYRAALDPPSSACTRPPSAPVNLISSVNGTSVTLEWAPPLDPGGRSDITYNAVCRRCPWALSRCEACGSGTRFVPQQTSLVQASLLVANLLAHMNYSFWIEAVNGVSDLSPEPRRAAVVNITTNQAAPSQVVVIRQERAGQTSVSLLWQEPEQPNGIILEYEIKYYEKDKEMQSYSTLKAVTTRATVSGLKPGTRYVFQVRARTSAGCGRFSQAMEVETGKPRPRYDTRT


Legend:
Experiment in all cases: Selectivity ELISA of humanized antibodies for human Eph receptor
Format in all cases: binding
Conditions in all cases: coated protein 1 nM
human EphA7 = target: T1, human EphA7
In short: (§1)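 His-tagged SEAP fusions of each human Eph receptor extracellular region, from Expi293F supernatants, were captured at 1 nM on anti-His-coated wells. Humanized antibody was bound 1 h at room temperature, then detected with HRP […] IgG. TMB development was acid-stopped and read at 450 nm.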

SEAP-His = SEAP-His (Homo sapiens, UniProt P05187)
In short: as §1

human EphB4 = target: T2, human EphB4
In short: as §1

human EphA8 = target: T3, human EphA8
In short: as §1

SEAP-His, sequence (P05187 23-511 limits assumed): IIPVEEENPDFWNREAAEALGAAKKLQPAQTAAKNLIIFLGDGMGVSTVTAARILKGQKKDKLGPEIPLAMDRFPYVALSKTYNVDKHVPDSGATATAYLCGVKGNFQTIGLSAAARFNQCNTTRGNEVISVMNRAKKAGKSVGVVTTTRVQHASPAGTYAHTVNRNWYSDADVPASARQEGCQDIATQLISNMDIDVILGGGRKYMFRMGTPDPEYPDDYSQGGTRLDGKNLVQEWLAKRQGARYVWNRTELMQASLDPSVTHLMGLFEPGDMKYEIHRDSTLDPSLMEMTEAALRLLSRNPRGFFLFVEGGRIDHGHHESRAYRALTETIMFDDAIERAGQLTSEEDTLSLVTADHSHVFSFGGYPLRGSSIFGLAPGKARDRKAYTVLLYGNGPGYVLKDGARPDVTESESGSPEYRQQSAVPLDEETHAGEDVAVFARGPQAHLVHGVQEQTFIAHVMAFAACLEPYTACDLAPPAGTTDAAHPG

Molecule | hEphA7-SEAP-: absorbance at 450 nm, percentage with respect to hEphA4-SEAP-His as 100% (human EphA7) | SEAP-His: absorbance at 450 nm, percentage with respect to hEphA4-SEAP-His as 100% (SEAP-His) | hEphB4-SEAP-: absorbance at 450 nm, percentage with respect to hEphA4-SEAP-His as 100% (human EphB4) | hEphA8-SEAP-: absorbance at 450 nm, percentage with respect to hEphA4-SEAP-His as 100% (human EphA8)
87 (antibody, V domains shown, constant regions without entry; synthetic humanized antibody light chain variable region sequence; synthetic humanized antibody heavy chain variable region sequence) VL: DIQMTQSPSSLSASVGDRVTITCRASENIYRNLAWYQQKPGKAPQLLLYAATNLADGVPSRFSGSGSGTDYTLTISSLQPEDFATYYCQHFWGTPWTFGQGTKVEIK VH: QVQLVQSGSELKKPGASVKVSCKASGYTFTDYSMHWVRQAPGQGLEWMGWINTETGEPTYAQGFTGRFVFSLDTSVSTAYLQISSLKAEDTAVYYCARIPLYYYGSRYWYFDVWGQGTTVTVSS | 5.3% | 5.5% | 5.5% | 5.7%
89 (antibody, V domains shown, constant regions without entry; synthetic humanized antibody light chain variable region sequence; synthetic humanized antibody heavy chain variable region sequence) VL: DIQMTQSPSSLSASVGDRVTITCRASENIYRNLAWYQQKPGKAPQLLLYAATNLADGVPSRFSGSGSGTDYTLTISSLQPEDFATYYCQHFWGTPWTFGQGTKVEIK VH: QIQLVQSGSELKKPGASVKVSCKASGYTFTDYSMHWVRQAPGQGLKWMGWINTETGEPTYAQGFTGRFVFSLDTSVSTAYLQISSLKAEDTAVYYCARIPLYYYGSRYWYFDVWGQGTTVTVSS | 5.4% | 5.8% | 5.8% | 5.7%
93 (antibody, V domains shown, constant regions without entry; synthetic humanized antibody light chain variable region sequence; synthetic humanized antibody heavy chain variable region sequence) VL: EIVMTQSPATLSVSPGERATLSCRASENIYRNLAWYQQKPGQSPRLLIYAATNLADGIPARFSGSGSGTEYTLTISSLQSEDFAVYYCQHFWGTPWTFGQGTKVEIK VH: QVQLVQSGSELKKPGASVKVSCKASGYTFTDYSMHWVRQAPGQGLEWMGWINTETGEPTYAQGFTGRFVFSLDTSVSTAYLQISSLKAEDTAVYYCARIPLYYYGSRYWYFDVWGQGTTVTVSS | 4.9% | 5.0% | 5.0% | 5.0%
90 (antibody, V domains shown, constant regions without entry; synthetic humanized antibody light chain variable region sequence; synthetic humanized antibody heavy chain variable region sequence) VL: DIQMTQSPSSLSASVGDRVTITCRASENIYRNLAWYQQKPGKAPQLLLYAATNLADGVPSRFSGSGSGTDYTLTISSLQPEDFATYYCQHFWGTPWTFGQGTKVEIK VH: QVQLVQSGSELKKPGASVKVSCKASGYTFTDYSMHWVRQAPGQGLEWMGWINTETGEPTYADDFKGRFVFSLDTSVSTAYLQISSLKAEDTAVYYCARIPLYYYGSRYWYFDVWGQGTTVTVSS | 4.9% | 5.2% | 5.0% | 5.4%
88 (antibody, V domains shown, constant regions without entry; synthetic humanized antibody light chain variable region sequence; synthetic humanized antibody heavy chain variable region sequence) VL: DIQMTQSPSSLSASVGDRVTITCRASENIYRNLAWYQQKPGKAPQLLLYAATNLADGVPSRFSGSGSGTDYTLTISSLQPEDFATYYCQHFWGTPWTFGQGTKVEIK VH: QVQLVQSGSELKKPGASVKVSCKASGYTFTDYSMHWVRQAPGQGLKWMGWINTETGEPTYAQGFTGRFVFSLDTSVSTAYLQISSLKAEDTAVYYCARIPLYYYGSRYWYFDVWGQGTTVTVSS | 6.0% | 6.1% | 6.1% | 6.2%
92 (antibody, V domains shown, constant regions without entry; synthetic humanized antibody light chain variable region sequence; synthetic humanized antibody heavy chain variable region sequence) VL: DIQMTQSPSSLSASVGDRVTITCRASENIYRNLAWYQQKPGKAPQLLLYAATNLADGVPSRFSGSGSGTDYTLTISSLQPEDFATYYCQHFWGTPWTFGQGTKVEIK VH: QIQLVQSGSELKKPGASVKVSCKASGYTFTDYSMHWVRQAPGQGLKWMGWINTETGEPTYADDFKGRFVFSLDTSVSTAYLQISSLKAEDTAVYYCARIPLYYYGSRYWYFDVWGQGTTVTVSS | 6.4% | 6.5% | 6.6% | 6.7%
91 (antibody, V domains shown, constant regions without entry; synthetic humanized antibody light chain variable region sequence; synthetic humanized antibody heavy chain variable region sequence) VL: DIQMTQSPSSLSASVGDRVTITCRASENIYRNLAWYQQKPGKAPQLLLYAATNLADGVPSRFSGSGSGTDYTLTISSLQPEDFATYYCQHFWGTPWTFGQGTKVEIK VH: QVQLVQSGSELKKPGASVKVSCKASGYTFTDYSMHWVRQAPGQGLKWMGWINTETGEPTYADDFKGRFVFSLDTSVSTAYLQISSLKAEDTAVYYCARIPLYYYGSRYWYFDVWGQGTTVTVSS | 5.6% | 6.4% | 6.2% | 6.2%
